# Laboratory results as given in paper PMC6804253, “Predicting and Experimentally Validating Hot-Spot Residues at Protein–Protein Interfaces” (ACS Chemical Biology, 2019).
# What was measured:
# [1] = system: PPIs of the SKEMPI data set (by PDBID); conditions: single mutation to alanine, sheet sortedByGroup, r_group FAMILYVW; ref SKEMPI; cited from earlier work
# [2] = system: PPIs of the SKEMPI data set (by PDBID); test: SKEMPI experimental ΔΔG, single mutations to alanine; assay type: binding; conditions: class of the SKEMPI experimental ΔΔG
Molecule,sk_ddG_kJ (SKEMPI experimental ΔΔG) [1] [kJ],sk_class [2]
"1A4Y YA437A (protein, UniProt P13489 2-461, looked up, variant Y437A) Ribonuclease inhibitor: SLDIQSLDIQCEELSDARWAELLPLLQQCQVVRLDDCGLTEARCKDISSALRVNPALAELNLRSNELGDVGVHCVLQGLQTPSCKIQKLSLQNCCLTGAGCGVLSSTLRTLPTLQELHLSDNLLGDAGLQLLCEGLLDPQCRLEKLQLEYCSLSAASCEPLASVLRAKPDFKELTVSNNDINEAGVRVLCQGLKDSPCQLEALKLESCGVTSDNCRDLCGIVASKASLRELALGSNKLGDVGMAELCPGLLHPSSRLRTLWIWECGITAKGCGDLCRVLRAKESLKELSLAGNELGDEGARLLCETLLEPGCQLESLWVKSCSFTAACCSHFSSVLAQNRFLLELQISNNRLEDAGVRELCQGLGQPGSVLRVLWLADCDVSDSSCSSLAATLLANHSLRELDLSNNCLGDAGILQLVESVRQPGCLLEQLVLYDIAWSEEMEDRLQALEKDKPSLRVIS",3.43,Neutral (neutral (little effect) 4.184 kJ/mol < ΔΔG > −4.184 kJ/mol)
"1A4Y IA459A (protein, UniProt P13489 2-461, looked up, variant I459A) Ribonuclease inhibitor: SLDIQSLDIQCEELSDARWAELLPLLQQCQVVRLDDCGLTEARCKDISSALRVNPALAELNLRSNELGDVGVHCVLQGLQTPSCKIQKLSLQNCCLTGAGCGVLSSTLRTLPTLQELHLSDNLLGDAGLQLLCEGLLDPQCRLEKLQLEYCSLSAASCEPLASVLRAKPDFKELTVSNNDINEAGVRVLCQGLKDSPCQLEALKLESCGVTSDNCRDLCGIVASKASLRELALGSNKLGDVGMAELCPGLLHPSSRLRTLWIWECGITAKGCGDLCRVLRAKESLKELSLAGNELGDEGARLLCETLLEPGCQLESLWVKSCSFTAACCSHFSSVLAQNRFLLELQISNNRLEDAGVRELCQGLGQPGSVLRVLWLADCDVSDSSCSSLAATLLANHSLRELDLSNNCLGDAGILQLVESVRQPGCLLEQLVLYDIYWSEEMEDRLQALEKDKPSLRVAS",2.80,Neutral (neutral (little effect) 4.184 kJ/mol < ΔΔG > −4.184 kJ/mol)
"1AHW YC157A (protein, UniProt P13726 33-251, looked up, variant Y157A, extracellular domain) extracellular domain: SGTTNTVAAYNLTWKSTNFKTILEWEPKPVNQVYTVQISTKSGDWKSKCFYTTDTECDLTDEIVKDVKQTYLARVFSYPAGNVESTGSAGEPLYENSPEFTPYLETNLGQPTIQSFEQVGTKVNVTVEDERTLVRRNNTFLSLRDVFGKDLIYTLYAWKSSSSGKKTAKTNTNEFLIDVDKGENYCFSVQAVIPSRTVNRKSTDSPVECMGQEKGEFRE",-7.91,Negative (negative (affinity enhancing) ΔΔG ≤ −4.184 kJ/mol)
"1AHW LC176A (protein, UniProt P13726 33-251, looked up, variant L176A, extracellular domain) extracellular domain: SGTTNTVAAYNLTWKSTNFKTILEWEPKPVNQVYTVQISTKSGDWKSKCFYTTDTECDLTDEIVKDVKQTYLARVFSYPAGNVESTGSAGEPLYENSPEFTPYLETNLGQPTIQSFEQVGTKVNVTVEDERTLVRRNNTFLSLRDVFGKDLIYTLYYWKSSSSGKKTAKTNTNEFAIDVDKGENYCFSVQAVIPSRTVNRKSTDSPVECMGQEKGEFRE",4.14,Neutral (neutral (little effect) 4.184 kJ/mol < ΔΔG > −4.184 kJ/mol)
"1AHW VC198A (protein, UniProt P13726 33-251, looked up, variant V198A, extracellular domain) extracellular domain: SGTTNTVAAYNLTWKSTNFKTILEWEPKPVNQVYTVQISTKSGDWKSKCFYTTDTECDLTDEIVKDVKQTYLARVFSYPAGNVESTGSAGEPLYENSPEFTPYLETNLGQPTIQSFEQVGTKVNVTVEDERTLVRRNNTFLSLRDVFGKDLIYTLYYWKSSSSGKKTAKTNTNEFLIDVDKGENYCFSVQAVIPSRTANRKSTDSPVECMGQEKGEFRE",-1.30,Neutral (neutral (little effect) 4.184 kJ/mol < ΔΔG > −4.184 kJ/mol)
